# According to US20210187118A1 (Daiichi Sankyo, published 2021):
# Substitutions are numbered along the chain they refer to. Numbers in names are those of the source.
# B1: PankoMab-ADC (antibody, human IgG1, kappa, V domains shown)
# VH: EVQLVESGGGLVQPGGSMRLSCVASGFPFSNYWMNWVRQAPGKGLEWVGEIRLKSNNYTTHYAESVKGRFTISRDDSKNSLYLQMNSLKTEDTAVYYCTRHYYFDYWGQGTLVTVSS
# VL: DIVMTQSPLSNPVTPGEPASISCRSSKSLLHSNGITYFFWYLQKPGQSPQLLIYQMSNLASGVPDRFSGSGSGTDFTLRISRVEAEDVGVYYCAQNLELPPTFGQGTKVEIKR
# modifications: drug-linker of Formula 2 bound by thioether bonds; drug-linker of Formula 2 (maleimide-GGFG linker with DXd/exatecan derivative) bound by thioether bonds; average approximately 8 drug molecules per antibody; Fab N-glycan on Asn54 (position 57)
# B2: PM-N54Q-ADC (antibody, human IgG1, kappa, V domains shown)
# VH: B1 VH with N57Q
# VL: B1 VL
# modifications: drug-linker of Formula 2 bound by thioether bonds; drug-linker of Formula 2 (maleimide-GGFG linker with DXd/exatecan derivative) bound by thioether bonds; average approximately 8 drug molecules per antibody
# Biological target: TA-MUC1 (tumor-associated MUC1) on human tumor cells (human, UniProt P15941 24-1255, aberrant tumor-associated O-glycosylation)
# Assay: cell-based or functional assay
# Chain of TA-MUC1 (tumor-associated MUC1) on human tumor cells (P15941 24-1255): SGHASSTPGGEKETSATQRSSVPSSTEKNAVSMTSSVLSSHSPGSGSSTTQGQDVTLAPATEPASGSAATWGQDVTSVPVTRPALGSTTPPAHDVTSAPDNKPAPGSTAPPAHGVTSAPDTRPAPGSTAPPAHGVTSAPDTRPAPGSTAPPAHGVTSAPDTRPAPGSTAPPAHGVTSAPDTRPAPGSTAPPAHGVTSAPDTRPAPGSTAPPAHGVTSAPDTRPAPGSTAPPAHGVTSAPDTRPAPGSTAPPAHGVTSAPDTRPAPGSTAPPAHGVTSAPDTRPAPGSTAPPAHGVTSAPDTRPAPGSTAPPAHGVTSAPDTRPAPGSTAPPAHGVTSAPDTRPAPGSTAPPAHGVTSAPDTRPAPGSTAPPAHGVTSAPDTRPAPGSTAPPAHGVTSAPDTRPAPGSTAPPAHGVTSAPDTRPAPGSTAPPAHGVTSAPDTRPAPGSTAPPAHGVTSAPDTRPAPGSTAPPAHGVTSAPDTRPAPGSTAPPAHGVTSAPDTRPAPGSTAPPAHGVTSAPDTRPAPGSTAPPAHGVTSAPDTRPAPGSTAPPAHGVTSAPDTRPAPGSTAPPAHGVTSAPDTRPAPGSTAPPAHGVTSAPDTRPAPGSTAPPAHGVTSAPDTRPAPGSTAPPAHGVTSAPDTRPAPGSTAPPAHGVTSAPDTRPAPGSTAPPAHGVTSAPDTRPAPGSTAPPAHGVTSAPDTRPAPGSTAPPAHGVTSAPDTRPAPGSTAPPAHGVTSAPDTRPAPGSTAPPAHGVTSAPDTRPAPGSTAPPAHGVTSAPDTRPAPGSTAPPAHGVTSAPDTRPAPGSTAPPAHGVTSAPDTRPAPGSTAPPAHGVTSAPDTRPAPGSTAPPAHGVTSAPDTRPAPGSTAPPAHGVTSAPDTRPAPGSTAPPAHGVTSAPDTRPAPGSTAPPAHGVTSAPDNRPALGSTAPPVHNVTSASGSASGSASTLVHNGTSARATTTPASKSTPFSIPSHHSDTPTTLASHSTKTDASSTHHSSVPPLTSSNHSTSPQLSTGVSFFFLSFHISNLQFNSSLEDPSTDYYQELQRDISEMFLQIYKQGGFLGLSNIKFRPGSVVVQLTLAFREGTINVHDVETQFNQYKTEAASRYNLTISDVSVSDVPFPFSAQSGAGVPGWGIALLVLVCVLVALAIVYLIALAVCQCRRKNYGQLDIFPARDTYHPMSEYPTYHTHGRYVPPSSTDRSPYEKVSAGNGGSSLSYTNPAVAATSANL
Binder,"IC50 of cytotoxic activity (cell viability, ATP assay, 6 days) on TA-MUC1 positive MDA-MB-468 cells [nM]","cytotoxic activity on HPAC and NCI-H441 cells, fold against PankoMab-ADC [fold]","potency ratio of PM-N54Q-ADC to PankoMab-ADC, cytotoxic activity on HPAC cells [ratio]","potency ratio of PM-N54Q-ADC to PankoMab-ADC, cytotoxic activity on NCI-H441 cells [ratio]"
B1,< 10,,,
B2,,> 1.5,1.92,1.66
